Data from article doi:10.1101/2025.10.29.685445 (2025).

B1: HCoV-HKU1 RBD (residues 310-606 of isolate N5), as used in BLI (domain or fragment)
chain: TVKPVATVYRRIPNLPDCDIDNWLNNVSVPSPLNWERRIFSNCNFNLSTLLRLVHVDSFSCNNLDKSKIFGSCFNSITVDKFAIPNRRRDDLQLGSSGFLQSSNYKIDISSSSCQLYYSLPLVNVTINNFNPSSWNRRYGFGSFNLSSYDVVYSDHCFSVNSDFCPCADPSVVNSCAKSKPPSAICPAGTKYRHCDLDTTLYVKNWCRCSCLPDPISTYSPNTCPQKKVVVGIGEHCPGLGINEEKCGTQLNHSSCFCSPDAFLGWSFDSCISNNRCNIFSNFIFNGINSGTTCSND
B2: H501-008 Fab (Fab, V domains shown)
VH: QVQLVQSGGGVVQPGRSLRLSCAVSGFTLDRYAMHWVRQAPGKALEWVALMSADGREQYYAESVKGRFTFSRDSSKNTLYLQMHNLRTDDSSVYFCAREGPMYYDAWSGRSYYNNYALDVWGRGTTVAVSS
VL: QSVLTQPPSVSAAPGQTVTISCSGSSSNIGDNYVSWYQQVPGTAPRLLVYDNNRRPLGIPDRFSGSKSGTSATLAIAGLQTGDEADYYCGTWDSSLSAGVFGGGTKLTVV

Key:
H501-012 = assay: BLI
H501-016 = assay: BLI
H501-015 = assay: BLI
H501-013 = assay: BLI
H501-020 = assay: BLI
H501-009 = assay: BLI
H501-003 = assay: BLI
[1] = target: T1, HCoV-HKU1 RBD (residues 310-606 of isolate N5), Fc- and His-tagged (HCoV-HKU1 (isolate N5), UniProt Q0ZME7 310-606); assay: SPR
T1 chain: B1 chain

[2] = target: HCoV-OC43 S1-CTD (residues 318-608), Fc- and His-tagged (HCoV-OC43); assay: SPR

Binder	Kd (H501-012)	koff (H501-012)	Kd (H501-016)	koff (H501-016)	Kd (H501-015)	koff (H501-015)	Kd (H501-013)	koff (H501-013)	Kd (H501-020)	koff (H501-020)	Kd (H501-009)	koff (H501-009)	Kd (H501-003)	koff [1]	koff [2]
B1	1.87 nM	0.000326 s⁻¹	0.176 nM	3.26e-05 s⁻¹	0.568 nM	0.000117 s⁻¹	0.915 nM	0.000209 s⁻¹	< 0.001 nM	< 1e-07 s⁻¹	5.44 nM	0.000383 s⁻¹	0.508 nM		
B2														0.000197 s⁻¹	0.042 s⁻¹
